This note sets out measurements from patent US12497460B2, “Anti-MSR1 antibodies and methods of use thereof” (REGENERON PHARMACEUTICALS, INC., priority 2018, dated 2025).

In assay [1] the test system is LPS-induced IL-1β release in differentiated THP-1 cells. Description: LPS-mediated IL-1β release assay. It counts as cell-based, human. To be noted: for IC50: 100 ng/ml LPS for 5 hours, read-out: IC50, inhibition of LPS-induced IL-1β secretion. How it is done:
To test the anti-inflammatory properties of anti-MSR1 antibody-steroid conjugates in vitro, a lipopolysaccharide (LPS)-mediated IL-1β release assay was performed. For the assay, THP-1 cells were seeded onto 96 well plates at 40,000 cells/well in media containing RPMI supplemented with 10% FBS and pencillin/streptomycinin and differentiated with 200 nM Phorbol Myristate Acetate (PMA) for 3 days. After the 3-day differentiation period, three-fold serial dilutions of antibody drug conjugates, unconjugated antibodies, or free payloads in fresh media were added to the cells at final concentration ranging from 100 nM to 0.01 nM. Media alone served as a blank control. Subsequently at 24, 48, or 72 hours later, cells were treated with 100 ng/ml LPS (InVivoGen, Cat #tlrl-eklps) for 5 hours. The cell media was then collected, and IL-1β levels were measured using a V-PLEX Proinflammatory Panel 1 human kit (Meso Scale Diagnostics, Cat #15049D-2) as per manufacturer's instructions. Subsequently, the plate was read on a Meso Scale Diagnostics instrument.
IC50 values were determined from a four-parameter logistic equation over a 10-point response curve (GraphPad Prism). All IC50 values are expressed in M (molar) concentration. The IC50 values and IL-1β amount at the maximum concentration of antibody-steroid conjugates or controls are shown in Table 22 each of the time point tested.

Assay [2] deals with Msr1^hu/hu ApoE^−/− mice, peritoneal cells. Description: Ex vivo LPS-induced cytokine production by peritoneal cells after in vivo dosing. To be noted: for Cytokine IL-6 / Cytokine KC-GRO / Cytokine TNF-α: ex vivo LPS. More on the design: species or system mouse. As for the experimental part: To examine the anti-inflammatory effect of the anti-MSR1 antibody-steroid conjugates, an ex-vivo and in vivo LPS-induced inflammatory immune response model was performed.
Generation of a mouse inflammatory immune response model. Mice homozygously expressing human MSR1 extracellular domain in place of the mouse MSR1 extracellular domain and with a homozygous deletion of the ApoE gene were utilized (resulting mice referred to as Msr1^hu/hu ApoE^−/− mice).
(§1) Assay protocol for ex vivo LPS-induced responses. In ex vivo LPS challenge experiments, mice were intraperitoneally administered with 10 μL/g of anti-MSR1 antibody-steroid conjugates (H1H21234N-N297Q-LP13), isotype control steroid conjugate (Isotype control-LP13), unconjugated anti-MSR1 antibody (H1H21234N-N297Q) and isotype control antibodies at different time points (24, 48, and 72 hours) prior to harvesting the peritoneal cells from peritoneal cavity. […] All mice were sacrificed at 0 hour time point and peritoneal cells were obtained from the peritoneum by the peritoneal lavage technique. In brief, 5 mL of ice cold 1×PBS (ThermoFisher Scientific, Cat #20012027) containing 2% BSA (Gibco, Cat #A9576) and 0.6 mM EDTA (ThermoFisher Scientific, Cat #15575020) were injected into the peritoneal cavity using 27 g needle. […] The resuspended cells were plated at 500,000 cells per well in 24-well tissues culture plates and incubated with or without 10 ng/mL of LPS for 18 hours.
Measurement of cytokines at 18 hours post-LPS ex vivo challenge. Supernatants were collected into 96-well round bottom tissue culture plates at 18 hours post-ex vivo LPS challenge and stored at […] until further analysis. Cytokine concentrations in the supernatants were measured using a Proinflammatory Panel 1 (mouse) multiplex immunoassay kit (MesoScale Diagnostics, Cat #K15048D) according to manufacturer's instructions. Electrochemiluminescence was read on a Meso Scale Diagnostics SECTOR® instrument. Data analysis was performed using GraphPad Prism™ software. Statistical significance within the groups was determined by one-way Anova with Turkey's multiple comparison post-test (*p<0.01; **p<0.001; ***p<0.0001).

The subject of assay [3] is Msr1^hu/hu ApoE^−/− mice, peritoneal macrophages. Description: LPS-mediated expression of CD80 on peritoneal macrophages (flow cytometry). Conditions: for LPS-mediated expression of CD80, pMΦ Cells: hMSR1+F4/80+CD11b+ peritoneal macrophages; for LPS-mediated expression of CD80, non-pMΦ Cells: hMSR1−F4/80−CD11b− cells. Type of assay: in vivo, mouse. How it is done: as §1
Assay protocol for in vivo LPS-induced responses. In in vivo LPS challenge experiments, mice were intraperitoneally administered with 10 μL/g of decreasing concentrations of anti-MSR1 antibody-steroid conjugates (H1H21234N-N297Q-LP13) and isotype control steroid conjugate (Isotype control-N297Q-LP13) at 24 hours prior to in vivo LPS challenge. PBS and free steroid P4 were intraperitoneally injected at 2 hours prior to in vivo LPS challenge. At 0 hour time point, three large drops of blood (volume ˜ 100 μL) were collected from the maxillary vein of each mouse into serum gel separator tubes. The tubes were centrifuged at 2200-2500 rpm for 15 minutes, and the serum was collected into 96-well plates for subsequent measurement of cytokines. At 18 hours post in vivo LPS challenge, the peritoneal cells were obtained from periotenal cavity as aforementioned for subsequent flow cytometry analysis.
Analysis of expression of activation markers on peritoneal macrophages after LPS ex vivo challenge. Upon collection of supernatants for cytokine analysis, the plates were washed twice with 1×PBS w/o Ca^++/Mg2^++ (ThermoFisher Scientific, Cat #14190144), and the adherent peritoneal cells were harvested by addition of 250-300 μL of cold Macrophage Detachment Solution DXF (PromoCell, Cat #C41330) for 40 minutes. The detached cells were collected into 50-mL tubes and centrifuged at 350×g for 15 minutes. After two washes with 1×PBS supplemented with 2 mM EDTA, the cells were resuspended in Cell Staining Buffer (Biolegend, #420201) and plated at 1×10^6 cells per well in a 96-well V bottom plate. Cells were centrifuged and cell pellets were resuspended in 100 μL of LIVE/DEAD Blue Fluorescent Reactive Dye (Life Technologies, Cat #L34962) diluted at 1:600 in 1×PBS to determine cell viability. Cells were incubated at room temperature for 20 minutes in dark. After one wash with 1×PBS, cells were incubated in Cell Staining Buffer containing 10 μg/mL of purified rat anti-mouse CD16/CD32 Fc Block (Clone: 2.4G2; BD Biosciences, Cat #553142) for 10 minutes at 4° C. The cells were washed once and incubated in the appropriate antibody mixture diluted in Brilliant Stain Buffer (BD Biosciences, Cat #566345) for 30 minutes at 4° C. in dark. The cells were subsequently washed with 1×PBS, resuspended in Cell Staining Buffer and acquired on FACS LSRFortessa X-20 flow cytometer (Becton Dickinson). Data were analyzed using FlowJo (Tree Star).

[4] abbreviates: administered 24 hours before peritoneal cell isolation.
The mark [5] stands for this setting: administered 48 hours before peritoneal cell isolation.
[6] abbreviates: administered 72 hours before peritoneal cell isolation.

Read-outs that look alike come from different tables or passages of the source. Marks after values point to notes of the source that are not given here.

B1: H1H21234N-N297Q-LP13 (conjugate)
VH: QVQLQESGPGLVKPSETLSLTCTVTGGSISRNYWSWIRQPPGKGLEWIGYIYYSGSIDYNPSLKSRVTISVDTSKNQFSLKLSSMTAADTAVYYCARDRWNWKYGMDVWGQGTTVIVSS
VL: EIVLTQSPGTLSLSPGERATLSCRASQTVRNNYLAWYHQKPGQAPRLLIYGASSRATGIPDRFSGSGSGTDFTLTISRLEPEDFTVYYCHQYGNSPWTFGQGTKMEIKR
In general, IC50 refers to the midpoint of a concentration-inhibition curve. With B1, the IC50 in assay [1] (24-hour time point) is 6.29 nM; in assay [1] (48-hour time point), 3.59 nM; in assay [1] (72-hour time point), 1.7 nM. Also, the results for the “IL1beta released at max concentration tested” value in assay [1] (24 hour treatment before LPS), in assay [1] (48 hour treatment before LPS) and in assay [1] (72 hour treatment before LPS) were 119.43 pg/mL, 69.3 pg/mL and 70.31 pg/mL, respectively. Besides, the results for the “Cytokine IL-6” value in assay [2] (setting [4]) and in assay [2] (setting [6]) were 21.1 ± 1.38**** ng/mL and 50.7 ± 14.1* ng/mL, respectively. For the same molecule, the figures for the “Cytokine KC-GRO” value in assay [2] (setting [4]), in assay [2] (setting [5]) and in assay [2] (setting [6]) were 9.3 ± 1.7 ng/mL, 6.3 ± 2.3* ng/mL and 13.1 ± 1.1 ng/mL, respectively. For the same molecule, the entries for the “Cytokine TNF-α” value in assay [2] (setting [4]), in assay [2] (setting [5]) and in assay [2] (setting [6]) were 0.26 ± 0.08*** ng/mL, 0.58 ± 0.06* ng/mL and 0.47 ± 0.1** ng/mL, respectively. Also, in assay [2] (i.p. dosing 24, 48, 72 hours (conjugates, antibodies) or 2 hours (free steroids) before cell harvest, 10 ng/mL LPS 18 hours), the “effect on ex vivo LPS-induced cytokine production (IL-6, KC-GRO, TNF-α) by peritoneal cells” value is listed as “efficacious in inhibiting LPS-induced cytokine production by peritoneal cells in a time-dependent manner”. Further, the “LPS-mediated expression of CD80, pMΦ Cells” value was 61.1 ± 1.3 % relative to PBS/LPS-treatment in assay [3] (administered 24 hours before), 58.7 ± 4.2 % relative to PBS/LPS-treatment in assay [3] (administered 48 hours before) and 63.9 ± 1.01 % relative to PBS/LPS-treatment in assay [3] (administered 72 hours before). The entries for the “LPS-mediated expression of CD80, non-pMΦ Cells” value in assay [3] (administered 24 hours before), in assay [3] (administered 48 hours before) and in assay [3] (administered 72 hours before) were 95.5 ± 2.6 % relative to PBS/LPS-treatment, 99 ± 1.8 % relative to PBS/LPS-treatment and 102.3 ± 0.14 % relative to PBS/LPS-treatment, respectively. Besides, in assay [3] (in vivo administration), the “LPS-mediated expression of CD80 on hMSR1^+F4/80^+CD11b^+ peritoneal macrophages (pMΦ)” value is given as “significant reduction”.
